From patent CN113842456A (QILU PHARMACEUTICAL CO LTD, dated 2021)

How the values were obtained:
[1] = target: 人4-1BB on HEK293/Human4-1BB细胞 (human, UniProt Q07011 24-255); experiment: cell-based or functional assay
[2] = target: T1, 重组人4-1BB蛋白(ACRO，货号41B-H5227) (human, UniProt Q07011 24-186); experiment: SPR (BIAcore), antibody captured on Protein A on a CM5 chip, 4-1BB 20nM-0.31nM as analyte
T1 construct: Bought recombinant protein; also called 4-1BB抗原; TNFRSF9

人4-1BB on HEK293/Human4-1BB细胞, sequence (Q07011 24-255): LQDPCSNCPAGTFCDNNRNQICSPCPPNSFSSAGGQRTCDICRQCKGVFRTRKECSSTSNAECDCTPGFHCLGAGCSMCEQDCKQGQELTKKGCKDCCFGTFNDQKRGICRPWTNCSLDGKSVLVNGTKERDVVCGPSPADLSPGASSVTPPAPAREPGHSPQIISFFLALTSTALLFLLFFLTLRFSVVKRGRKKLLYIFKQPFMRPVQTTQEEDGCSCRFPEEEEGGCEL

- NF-κB报告基因发光值(RLU) EC50 [1]: 7.69 ng/mL
- Kd [2]: 0.918 nM
B1: 抗人4-1BB的单克隆抗体MC03 (antibody, human IgG2, kappa, V domains shown)
VH: EVQLVQSGAEVKKPGATVKISCKASGFNIKDYYIHWVNQAPGKGLEWIGRIDPEDGDIAYAPKFQDRVTLTVDTSTDTAYLELSSLRSEDTAVYYCTTGNYYAMDFWGQGTTVTVSS
VL: QIVLTQSPATLSASPGERVTLSCTASSSVSSSYLHWYQQKPGSSPKLWIYSTSNLASGVPARFSGSGPGTSYTLTISSMEPEDAATYYCHQYHRSPPTFGQGTKLEIKR
notes: Obtained according to PCT/US2020/012080; The isotype control used is human IgG2; also called huG28.21.G2.1.4
